Measured values from patent publication US20120195879A1 (published 2012).

Target: T1, keyhole limpet hemocyanin (multimeric high molecular weight KLH) (Megathura crenulata (keyhole limpet), UniProt Q10583 17-3414; Q10584 20-3421)
T1 construct: also called mcKLH; Multimeric KLH
Test: SPR (BIAcore 2000), antibody captured on anti-human IgG Fc surface, multimeric KLH injected; apparent constants
Procedure: Multimeric high molecular weight keyhole limpet hemocyanin (KLH) was from Pierce (Rockford, Ill.). Anti-human IgG, Fcγ-specific antibody was from Jackson ImmunoResearch Laboratories, Inc. (West Grove, Pa.). BIACore 2000, research grade sensor chip CM5, surfactant P-20 (polyoxyethylenesorbitan), HBS-EP (10 mM HEPES, 0.15M NaCl, 3.4 mM EDTA, 0.005% P-20, pH 7.4), amine coupling reagents, 10 mM acetate, pH 4.5, and 10 mM glycine, pH 1.5 were from BIACore, Inc. (Piscataway, N.J.). Phosphate-buffered saline (PBS, 1×, no calcium chloride, no magnesium chloride) was from Invitrogen (Carlsbad, Calif.). Bovine serum albumin (BSA, fraction V, IgG free) was from Sigma (St. Louis, Mo.).
Anti-KLH antibody wase captured on individual flow cells, followed by injection of either sample buffer or KLH, ranging in concentration from 0.19-100 nM. To prepare dilutions of the multimeric high molecular weight KLH, an average molecular weight of 5,000,000 daltons was used. Following sample buffer or antigen injection, each surface was regenerated by two injections of 10 mM glycine, pH 1.5 to dissociate captured antibody from the immobilized anti-human Fc surfaces. BIAevaluation software was used to determine apparent kinetic parameters for binding of KLH to captured anti-KLH antibodies.

B1: anti-KLH antibody (human IgG1, clone 120.6.1) (antibody, V domains shown)
VH: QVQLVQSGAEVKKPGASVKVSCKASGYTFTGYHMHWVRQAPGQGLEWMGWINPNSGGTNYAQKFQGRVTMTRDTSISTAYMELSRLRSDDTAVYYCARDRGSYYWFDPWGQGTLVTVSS
VL: DIQMTQSPSSLSASVGDRVTITCRASQGIRNDLGWYQQKPGKAPKRLIYAASSLQSGVPSRFSGSGSGTEFTLTISSLQPEDFATYYCLQHNSYPLTFGGGTKVEIK
notes: also called IgG1 (120.6.1); anti-KLH 120.6.1
Kd: 0.2 nM | koff: 2.5e-05 s⁻¹ | kon: 120000 M⁻¹ s⁻¹
